{"source": "paper PMC9468636", "about": "“ZAT10 plays dual roles in cadmium uptake and detoxification in Arabidopsis”", "binders": {"B1": {"name": "ZAT10 promoter probe (P) (dsDNA)", "DNA 1": "ATCGCCACCTTCACTCTTCACACTTTCCTACCACTTGTCACGCAACTT", "DNA 2": "AAGTTGCGTGACAAGTGGTAGGAAAGTGTGAAGAGTGAAGGTGGCGAT"}}, "biological_target": "MBP-ZAT10 (Arabidopsis thaliana, UniProt Q96289 1-227)", "sequence (Q96289 whole entry)": "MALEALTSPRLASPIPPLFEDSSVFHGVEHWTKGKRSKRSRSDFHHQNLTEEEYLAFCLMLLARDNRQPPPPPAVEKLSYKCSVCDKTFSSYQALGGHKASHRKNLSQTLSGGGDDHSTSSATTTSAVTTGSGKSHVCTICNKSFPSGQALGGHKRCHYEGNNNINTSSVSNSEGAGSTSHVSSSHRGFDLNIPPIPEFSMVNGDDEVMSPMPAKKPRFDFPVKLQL", "experiment": "EMSA; 2 ug protein in 20 uL; EMSA/gel-shift binding 5x buffer (Beyotime; composition not stated), 20 uL, 25 C, 30 min, 12% native PAGE; protein eluted in 20 mM Tris-HCl, 100 mM NaCl, 10 mM", "conditions": "protein: recombinant; tags: N-terminal MBP (pMAL-c4X); blunt"}
{"binder": "B1", "values": [{"measurement": "binding result", "value": "binds"}]}
